Test [1] concerns the target T1, Marmoset Type II GnRH receptor (marmoset).
T1 chain: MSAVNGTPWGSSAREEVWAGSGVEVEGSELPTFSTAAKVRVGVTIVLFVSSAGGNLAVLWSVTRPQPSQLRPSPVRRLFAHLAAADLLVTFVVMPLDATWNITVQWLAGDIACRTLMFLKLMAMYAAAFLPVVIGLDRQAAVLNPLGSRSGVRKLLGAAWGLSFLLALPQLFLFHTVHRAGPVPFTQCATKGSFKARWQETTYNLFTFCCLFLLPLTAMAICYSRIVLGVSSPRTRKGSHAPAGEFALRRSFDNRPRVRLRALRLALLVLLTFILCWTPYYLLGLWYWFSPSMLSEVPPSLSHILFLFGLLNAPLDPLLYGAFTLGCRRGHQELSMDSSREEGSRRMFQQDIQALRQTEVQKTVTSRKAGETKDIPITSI
Briefly: cell-based or functional assay.

The target of test [2] is T2, human Type I GnRH receptor (human, UniProt P30968 1-328).
T2 sequence (looked up): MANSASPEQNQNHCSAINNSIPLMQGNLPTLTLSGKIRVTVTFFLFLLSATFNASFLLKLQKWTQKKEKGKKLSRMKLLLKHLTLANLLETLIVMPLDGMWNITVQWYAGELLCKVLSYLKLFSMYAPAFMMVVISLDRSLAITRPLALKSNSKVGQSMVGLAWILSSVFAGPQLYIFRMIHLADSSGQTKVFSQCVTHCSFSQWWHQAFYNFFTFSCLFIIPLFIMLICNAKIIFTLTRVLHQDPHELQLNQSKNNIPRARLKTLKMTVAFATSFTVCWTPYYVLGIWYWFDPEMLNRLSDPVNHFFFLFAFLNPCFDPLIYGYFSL
Briefly: cell-based or functional assay.

In test [3] the target is T1, Marmoset Type II GnRH receptor. Kind of test: competition with ^125I-[His^5-D-Tyr^6]GnRH I on COS-7 cells expressing the receptor (n = 3-6).
For test [4] the target is unchanged. Briefly: cell-based or functional assay.
For test [5] the target is unchanged. Kind of test: receptor binding assay on COS-7 cells; reference mammalian GnRH I.
The target is the same in test [6]. Kind of test: receptor binding assay on COS-7 cells; reference human Type I GnRH receptor.
Test [7] shares this target. Briefly: competition with ^125I-[His^5,D-Tyr^6]GnRH on COS-7 cells expressing marmoset Type II GnRH-R (FIG. 4, n=2).
In test [8] the target is T2, human Type I GnRH receptor. Kind of test: competition with ^125I-[His^5-D-Tyr^6]GnRH I on COS-7 cells expressing the receptor (n = 3-6).
In test [9] the target is T3, Marmoset Type II GnRH receptor (marmoset).
T3 chain: T1 chain
Described as above.

Test [10] concerns the target T3, Marmoset Type II GnRH receptor …. Briefly: cell-based or functional assay.
For test [11] the target is unchanged. Briefly: competition with ^125I-[His^5,D-Tyr^6]GnRH on COS-7 cells expressing marmoset Type II GnRH-R (FIG. 4, n=2).
For test [12], the target named is T4, human Type I GnRH receptor (human), P30968.
T4 chain: T2 sequence (looked up)
Briefly: competition with ^125I-[His^5-D-Tyr^6]GnRH I on COS-7 cells expressing the receptor (n = 3-6).

In test [13] the target is T4, human Type I GnRH receptor (human), …. Kind of test: cell-based or functional assay.

Read-outs that look alike come from different tables or passages of the source. Square brackets hold non-standard residues; d marks the D form. Ends that are not written are not given here.

B1: [D-Arg^6]GnRH II (peptide, UniProt O43555 24-33, looked up)
peptide: QHWSH[dR]WYPG
modifications: ends and bridges not checked
notes: mature; Synthetic analogue of GnRH II; also called [D-Arg^6]GnRH Type II
One may read the IC50 as the concentration needed to halve the response being measured. A high value points to lower potency. As to B1, the “InsP production (EC50)” value in test [1] turned out to be 2.39 nM; in [2] it was 3.8 nM. In test [3], this molecule returned a 50% inhibitory concentration (IC50) of 3.34 nM. For the same molecule, the “total inositol phosphate production (EC50)” value in test [4] is 1.1 nM.

B2: GnRH II (peptide, UniProt O43555 24-33, looked up)
peptide: QHWSHGWYPG
modifications: ends and bridges not checked
notes: mature; also called GnRH Type II; Type II GnRH
Take B2: in test [5], the “fold greater activity relative to mammalian GnRH I” value is 40 fold. For the same molecule, the “fold greater affinity than for the Type I receptor” value in [6] was 24 fold. The IC50 amounted to 1.3 nM in test [7], 1.07 nM in test [3] and 26.1 nM in test [8]. Moreover, the “InsP production (EC50)” value came to 0.45 nM in test [1] and 7.41 nM in test [2]. Also, the “stimulation of inositol phosphate production, fold greater activity relative to mammalian GnRH I” value in [4] came to 90 fold. The “total inositol phosphate production (EC50)” value in [4] is 0.46 nM.
QHWSYGLRPG (peptide, UniProt P01148 24-33, looked up, modifications not checked) [Mammalian GnRH I, P01148 24-33] showed an IC50 in test [9] of 42.6 nM. In test [10], this molecule displayed an InsP production (EC50) of 40.5 nM and a total inositol phosphate production (EC50) of 33.2 nM. This molecule had an IC50 in test [11] of 51.7 nM.
QHWSYGWLPG (peptide, UniProt P01148 24-33, looked up, modifications not checked) [salmon GnRH, P01148 24-33]: the IC50 in test [9] stood at 9.48 nM; in test [12], 244 nM; in [11], 9.8 nM. In addition, the InsP production (EC50) is 5.99 nM in [10] and 9.62 nM in test [13]. In addition, the total inositol phosphate production (EC50) in test [10] turned out to be 8.7 nM.

The values above are taken from patent US20030124585A1, “Type II gonadotropin-releasing hormone receptor and polynucleotides encoding therefor” (Medical Research Council, priority 2000, published 2003).
